Key:
[1] = Steady-state kinetics by stopped-flow, H2O2 range at fixed (pseudo)-halogen ions; assay type: biochemical; details: wt RbMPO 267 nM
Procedure: For the halides Cl^− and Br^−, the ranges were not performed at halide saturation but at 500 and 100 mM respectively (data not shown).

[2] = Steady-state kinetics by stopped-flow, NaSCN (hypothiocyanate formation, 240 nm); assay type: biochemical; details: for kss: SCN^− 5 mM, 267 nM RbMPO, H2O2 79 μM
Procedure: pH- and temperature-dependent studies were carried out for each substrate.
These temperatures were reached by using a stopped-flow coupled to a cryostat.
For temperature and pH measurements, RbMPO was set at the same concentration as in the determination of steady state kinetics parameters.

B1: wt RbMPO: novel bacterial heme peroxidase (myeloperoxidase-catalase) of about 78 KDa from Rhodopirellula baltica, SEQ ID NO: 1, produced recombinantly in E. coli (protein, listed as Rhodopirellula baltica)
chain: MLFWSKRTRKHPGRKRRRLRSEQLESRQLLAADFGGYRHNIYDAEDVNDDGRVSAIDALLVINAMTSETSRDENVFTDVNGDGRRSALDALRVINRIERGDVFPIDTSGDEDLNTLLPEMPSEVRSIDGSGNNPNDHLWGSVGQRLIRMAPAAYGDGISTLAGANRPSAREVSNVLSAMNTSQVLNDRGLSAFVYVWGQFIDHDLGLTESDEHGEAIDISVPEGDLWFDPMGSGEAVIPMTRTPIADGTGTSVGNPAQQFNQITAFIDGSMVYGSDAATAERLRTFAGGRLAISDNGLLPMDESGMVIAGDVRASENVGLTAIQTLFVREHNRLADEIFAADPEATDEEIYQRARLVVASLIQSITYNEFLPALLGQRAMDSYRGYDASVNPGIANEFSTAAFRLGHSTLRDEVGFMSNDGRESKDEMELKDAFFHASMLEETGIDSLLKFDASVQAQEIDLAVVDSLRNFLFGPPGAGGLDLVAMNIQRGRDHGLSDYNTTRQAYGLDRVETFDQITGDVELQQKLASLYGTVDNIDLWVGLMAEDHQHDASVGELTGLIIADQFQRTRDGDRFFYKNVLTDSEVESIERSTLADLIERNTSVDGLQENVFFMQVELRGRVILASSIPPNTMPSEVREEEIRGVSGMAIELIDASGKLVDSTVSDQHGNYRFRALSETGDYQVRLSESGEAMDVLVAHGAERIRGLDFIVLA
[1]; Br (100 mM)
  KMapp: 0.23 ± 0.21 mM
[1]; SCN (5 mM)
  KMapp: 0.12 ± 0.04 mM
[2]; 37° C., pH 4
  kss: 0.7 ± 0.04 s⁻¹
[2]; 37° C., pH 5
  kss: 5.4 ± 0.02 s⁻¹
[2]; 37° C., pH 6
  kss: 27.0 ± 0.06 s⁻¹
[2]; 37° C., pH 7
  kss: 42.8 ± 0.13 s⁻¹
[2]; 37° C., pH 8
  kss: 20.4 ± 0.03 s⁻¹
[2]; 37° C., pH 9
  kss: 3.1 ± 0.02 s⁻¹
[2]; 37° C., pH 10
  kss: 0 ± 0 s⁻¹
[2]; pH 7.5, 10° C.
  kss: 5.0 ± 0.01 s⁻¹
[2]; pH 7.5, 20° C.
  kss: 37.6 ± 0.10 s⁻¹
[2]; pH 7.5, 30° C.
  kss: 56.3 ± 0.10 s⁻¹
[2]; pH 7.5, 37° C.
  kss: 63.2 ± 0.11 s⁻¹
[2]; pH 7.5, 40° C.
  kss: 55.5 ± 0.14 s⁻¹
[2]; pH 7.5, 50° C.
  kss: 56.5 ± 0.14 s⁻¹
[2]; pH 7.5, 60° C.
  kss: 67.2 ± 0.22 s⁻¹
[2]; from steady-state NaSCN, NaBr and NaCl ranges
  substrate specificity: SCN^−>Br^−>Cl^−
